Results taken from patent publication US7125658B2, “Small protein that interacts with a ribonucleotide reductase subunit and uses thereof” (The Trustees of Columbia University in the City of New York, priority 1998, dated 2006).

What was measured:
[1] = target: T1, Yeast Rnr2p/Rnr4p heterodimer (yeast (Saccharomyces cerevisiae), UniProt P09938 1-399; P49723 1-345); assay: BIAcore, immobilized Sml1p
T1 construct: Coexpressed and purified as a heterodimer; also called R2/R4 heterodimer
T1 sequence (looked up) 1: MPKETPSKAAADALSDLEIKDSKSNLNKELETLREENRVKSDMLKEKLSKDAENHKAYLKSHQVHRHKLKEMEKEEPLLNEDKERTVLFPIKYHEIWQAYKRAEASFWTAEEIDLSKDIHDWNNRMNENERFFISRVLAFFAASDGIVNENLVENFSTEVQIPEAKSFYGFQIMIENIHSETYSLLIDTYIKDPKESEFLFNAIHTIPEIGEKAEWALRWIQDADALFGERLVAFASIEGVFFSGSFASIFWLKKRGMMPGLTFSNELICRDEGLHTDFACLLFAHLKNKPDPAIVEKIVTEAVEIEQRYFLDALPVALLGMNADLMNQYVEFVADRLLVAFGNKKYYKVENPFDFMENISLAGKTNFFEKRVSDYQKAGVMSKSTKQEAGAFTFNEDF
T1 sequence (looked up) 2: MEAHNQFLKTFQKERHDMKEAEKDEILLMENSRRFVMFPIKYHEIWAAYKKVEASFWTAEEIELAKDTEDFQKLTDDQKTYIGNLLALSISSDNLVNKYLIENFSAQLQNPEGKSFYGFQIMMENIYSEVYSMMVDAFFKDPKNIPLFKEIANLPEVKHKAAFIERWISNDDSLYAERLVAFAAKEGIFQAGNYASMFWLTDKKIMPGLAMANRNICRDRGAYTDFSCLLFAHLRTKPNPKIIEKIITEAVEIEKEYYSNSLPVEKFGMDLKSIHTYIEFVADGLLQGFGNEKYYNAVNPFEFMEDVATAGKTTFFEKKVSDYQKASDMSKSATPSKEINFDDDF

[2] = target: T2, bovine serum albumin (bovine, UniProt P02769 25-607); assay: BIAcore, immobilized Sml1p
T2 construct: Control; also called BSA

[3] = target: T3, Recombinant mouse ribonucleotide reductase R2 protein (mouse, UniProt P11157 1-390); assay: BIAcore, immobilized Sml1p
T3 construct: also called mouse R2 protein
T3 sequence (looked up): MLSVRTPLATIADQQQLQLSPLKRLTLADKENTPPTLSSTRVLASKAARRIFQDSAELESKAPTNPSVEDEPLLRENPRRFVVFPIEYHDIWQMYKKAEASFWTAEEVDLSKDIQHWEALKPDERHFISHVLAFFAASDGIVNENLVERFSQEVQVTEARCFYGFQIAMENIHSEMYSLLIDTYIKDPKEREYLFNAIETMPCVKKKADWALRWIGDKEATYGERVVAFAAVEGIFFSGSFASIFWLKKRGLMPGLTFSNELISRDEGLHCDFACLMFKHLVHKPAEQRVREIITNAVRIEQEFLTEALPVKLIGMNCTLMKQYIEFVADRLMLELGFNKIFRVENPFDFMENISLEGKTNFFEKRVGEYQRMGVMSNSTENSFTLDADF

[4] = target: T4, Recombinant yeast Rnr1 protein (large subunit of ribonucleotide reductase) (yeast (Saccharomyces cerevisiae), UniProt P21524 1-888); assay: BIAcore SPR, Sml1p immobilized, Rnr1p injected (0.1-2.5 µM); equilibrium response fitted to one site binding model; equilibrium response fit (GraphPad Prism), directly determined
T4 construct: It is in monomer/dimer/tetramer equilibrium depending on dTTP; also called yeast R1 protein
T4 sequence (looked up): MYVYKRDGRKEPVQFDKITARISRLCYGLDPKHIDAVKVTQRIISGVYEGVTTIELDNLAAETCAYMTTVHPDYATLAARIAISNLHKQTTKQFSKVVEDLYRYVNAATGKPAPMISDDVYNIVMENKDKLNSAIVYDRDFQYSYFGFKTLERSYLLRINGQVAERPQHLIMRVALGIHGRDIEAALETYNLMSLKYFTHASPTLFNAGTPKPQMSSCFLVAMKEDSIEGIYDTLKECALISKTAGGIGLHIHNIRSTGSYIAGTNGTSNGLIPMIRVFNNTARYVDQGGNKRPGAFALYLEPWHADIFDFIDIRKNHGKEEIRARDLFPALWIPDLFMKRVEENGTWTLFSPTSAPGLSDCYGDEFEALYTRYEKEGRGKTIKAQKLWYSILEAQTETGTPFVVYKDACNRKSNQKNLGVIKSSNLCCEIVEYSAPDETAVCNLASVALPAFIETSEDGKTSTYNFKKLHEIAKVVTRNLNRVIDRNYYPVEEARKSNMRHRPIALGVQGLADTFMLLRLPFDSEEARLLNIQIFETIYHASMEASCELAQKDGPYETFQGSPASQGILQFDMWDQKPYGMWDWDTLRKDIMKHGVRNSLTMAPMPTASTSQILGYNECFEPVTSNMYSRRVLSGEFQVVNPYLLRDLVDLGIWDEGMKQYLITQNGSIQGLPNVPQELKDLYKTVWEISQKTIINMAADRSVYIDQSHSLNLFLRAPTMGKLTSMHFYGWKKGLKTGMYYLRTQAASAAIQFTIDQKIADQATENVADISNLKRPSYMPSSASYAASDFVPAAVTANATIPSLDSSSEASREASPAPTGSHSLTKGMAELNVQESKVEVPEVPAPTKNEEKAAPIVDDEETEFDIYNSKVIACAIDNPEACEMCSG
Procedure: In this figure, the bulk effect response of around 60 RU has been subtracted.
BIAcore biosensor analysis. The interaction between Sml1p and either yeast Rnr1p or mouse R1 protein was studied by biosensor analysis using the BIAcore method (Biacore AB). The Sml1 protein was prepared in 10 mM sodium acetate, pH 5.2, at a concentration of 0.44 mg/ml; it was then immobilized on the dextran layer of the sensor chip as described previously for the mouse R2 protein (17). The ligand proteins were equilibrated with running buffer (10 mM Hepes-KOH, pH 7.4, 200 mM potassium acetate, 1 mM EDTA, 5 mM magnesium acetate and 0.05% Surfactant P20 (BIAcore). The interactions were studied at a constant temperature of 22° C. and a constant flow of 5 μl/min. Kinetics for the interaction of Sml1p with yeast Rnr1p was determined by allowing the immobilized Sml1p to interact with increasing concentrations of Rnr1p (18). The resonance unit (RU) is proportional to the mass, and 1 RU corresponds to a surface concentration of 1 pg of protein/mm² of the 100 nm thick dextran layer (19).
In control experiments, where the same series of Rnr1p solutions passed a sensor chip without immobilized Sml1p, a "bulk effect" gave a response of only about 60 RU. […] Calculating the equilibrium dissociation constant from these rate constants gave a K_0 of about 0.25 µM, which is close to the directly determined K_0.

T2 sequence (P02769 25-607 limits assumed): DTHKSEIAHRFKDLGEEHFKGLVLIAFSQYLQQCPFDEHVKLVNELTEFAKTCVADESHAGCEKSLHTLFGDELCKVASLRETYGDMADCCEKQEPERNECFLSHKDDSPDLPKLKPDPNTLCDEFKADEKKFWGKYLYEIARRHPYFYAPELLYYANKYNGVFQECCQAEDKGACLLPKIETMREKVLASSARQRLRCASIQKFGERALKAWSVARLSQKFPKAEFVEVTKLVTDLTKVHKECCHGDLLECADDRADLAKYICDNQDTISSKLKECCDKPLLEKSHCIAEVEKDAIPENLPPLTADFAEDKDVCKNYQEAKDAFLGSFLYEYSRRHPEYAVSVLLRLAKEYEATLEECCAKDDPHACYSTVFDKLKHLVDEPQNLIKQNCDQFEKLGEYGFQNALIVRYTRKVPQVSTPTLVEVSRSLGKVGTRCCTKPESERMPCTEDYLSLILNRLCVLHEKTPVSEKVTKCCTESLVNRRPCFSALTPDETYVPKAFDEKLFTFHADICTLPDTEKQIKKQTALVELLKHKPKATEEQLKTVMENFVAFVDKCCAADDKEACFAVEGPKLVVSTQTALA

B1: Recombinant yeast Sml1 protein (other)
chain: MQNSQDYFYAQNRCQQQQAPSTLRTVTMAEFRRVPLPPMAEVPMLSTQNSMGSSASASASSLEMWEKDLEERLNSIDHDMNNNKFGSGELKSMFNQGKVEEMDF
notes: Immobilized on the BIAcore chip in the biosensor experiments; also called YML058W product
B1: no binding (tested: 0.1 mg/ml) [1]; no binding (tested: 0.1 mg/ml) [2]; no binding [3]. The Kd [4] was 410 nM.
